# Test results: patent US20220273767A1 (SYNTHORX, published 2022)
# T1: IL-10 receptor signaling complex on mouse splenocytes (CD8 T cells, NK cells, B cells) (mouse, UniProt Q61727 17-575; Q61190 20-349)
# T1 sequence (looked up) 1: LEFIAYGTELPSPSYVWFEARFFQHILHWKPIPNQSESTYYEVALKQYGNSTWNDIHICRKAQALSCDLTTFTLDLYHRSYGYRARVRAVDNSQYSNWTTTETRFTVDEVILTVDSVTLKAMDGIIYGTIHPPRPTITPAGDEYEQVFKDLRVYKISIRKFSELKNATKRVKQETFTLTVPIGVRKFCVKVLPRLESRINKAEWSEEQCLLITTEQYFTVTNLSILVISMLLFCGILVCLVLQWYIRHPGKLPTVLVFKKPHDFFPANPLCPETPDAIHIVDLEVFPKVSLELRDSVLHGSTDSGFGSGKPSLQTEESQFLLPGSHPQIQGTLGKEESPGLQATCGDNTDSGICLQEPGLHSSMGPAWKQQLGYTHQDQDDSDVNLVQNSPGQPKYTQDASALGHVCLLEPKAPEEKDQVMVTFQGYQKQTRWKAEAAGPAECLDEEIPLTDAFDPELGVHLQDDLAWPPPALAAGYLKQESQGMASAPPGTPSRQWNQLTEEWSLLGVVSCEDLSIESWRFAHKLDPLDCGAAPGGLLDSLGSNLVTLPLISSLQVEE
# T1 sequence (looked up) 2: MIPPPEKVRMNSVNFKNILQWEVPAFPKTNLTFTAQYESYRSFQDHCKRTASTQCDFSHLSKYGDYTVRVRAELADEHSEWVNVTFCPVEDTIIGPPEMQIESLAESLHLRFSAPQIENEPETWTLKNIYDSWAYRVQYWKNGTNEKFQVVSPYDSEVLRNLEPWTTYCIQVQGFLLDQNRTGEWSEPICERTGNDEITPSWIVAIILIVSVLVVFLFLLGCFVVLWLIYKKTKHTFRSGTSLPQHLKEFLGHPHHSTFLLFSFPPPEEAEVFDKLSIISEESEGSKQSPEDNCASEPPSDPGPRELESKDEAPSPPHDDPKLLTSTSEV
# B1: Wild-type His-IL-10 (ligand)
# chain: MHHHHHHGSSENLYFQSPGQGTQSENSCTHFPGNLPNMLRDLRDAFSRVKTFFQMKDQLDNLLLKESLLEDFKGYLGCQALSEMIQFYLEEVMPQAENQDPDIKAHVNSLGENLKTLRLRLRRCHRFLPCENKSKAVEQVKNAFNKLQEKGIYKAMSEFDIFINYIEAYMTMKIRN
# Experiments:
# [1] = biological target: T1, IL-10 receptor signaling complex on …; assay: cell-based or functional assay
# [2] = biological target: T1, IL-10 receptor signaling complex on …; assay: cell-based or functional assay; remark: listed apart in the source
binder,measurement,setting,value
B1,"EC50, STAT3 phosphorylation, B cells, Balb/c mouse splenocytes",[1],1.3 ng/mL
same,"EC50, STAT3 phosphorylation, CD8 T cells, Balb/c mouse splenocytes",[1],4.07 ng/mL
same,"EC50, STAT3 phosphorylation, NK cells, Balb/c mouse splenocytes",[1],1.08 ng/mL
same,"EC50, STAT3 phosphorylation, B cells, B57BL/6 mouse splenocytes",[2],0.83 ng/mL
same,"EC50, STAT3 phosphorylation, CD8 T cells, B57BL/6 mouse splenocytes",[2],3.65 ng/mL
same,"EC50, STAT3 phosphorylation, NK cells, B57BL/6 mouse splenocytes",[2],1.06 ng/mL
